Results published in patent US20220033484A1 (FAPON BIOTECH, published 2022).

Biological target: T1, cTnI quality control product recombinant protein (human, UniProt P19429 2-210, limits assumed)
T1 construct: treated as the same molecule; also called cTnI antigen; cardiac troponin I
Assay: AMC sensor, antibody immobilised, cTnI in solution
Description: Operating process: it is equilibrated in Buffer 1 (PBST) for 60 s, the antibody is immobilized in an antibody solution for 300 s, incubated in Buffer 2 (PBST) for 180 s, bound in antigen solution for 420 s, dissociated in the Buffer 2 for 1200 s, 10 mM of GLY solution with pH 1.69 and Buffer 3 are used for sensor regeneration, and data is output. KD represents an equilibrium dissociation constant, namely the affinity; Kon represents a binding rate; and Kd is represents a dissociation rate.

T1 sequence (P19429 2-210 limits assumed): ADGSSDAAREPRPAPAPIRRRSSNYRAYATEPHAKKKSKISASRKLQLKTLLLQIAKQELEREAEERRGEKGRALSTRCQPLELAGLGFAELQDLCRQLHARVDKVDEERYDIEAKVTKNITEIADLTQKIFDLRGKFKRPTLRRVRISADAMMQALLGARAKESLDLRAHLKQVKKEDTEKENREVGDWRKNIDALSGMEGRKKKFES

| Binder | Kd | koff | kon |
| --- | --- | --- | --- |
| WT 1-51 (antibody, V domains shown, Heavy chain built as m63) VH: EVQLQQSGPELVKPGASVKMSCKASGYSFTIYVVHWVKQKPGQGLEWIGYIQPYIDGTRYNEKFKGKATLTVDKSSSTAFMELSSLTSEDSAVYYCARTGYGQYGLAWLAYWGQGTLVTVSA VL: QAVVIQESALTTSPGETVTLTCRSSSGAATTSQYANWVQEKPDHLFTGLIGGSNNRAPGVPARFSGSLIGDKAALTITGAQTEDEAIYFCAIVYSNHWVFGGGTKLTVLG | 35.4 nM | 0.000527 s⁻¹ | 14900 M⁻¹ s⁻¹ |
| Mutation 1-7 (antibody, V domains shown, Built as m8) VH: EVQLQQSGPELVKPGASVKMSCKASGYTFTIYVLHWVKQKPGQGLEWIGYIQPYLDGTKYNEKFKGKATLTVDKSSSTAFMELSSLTSEDSAVYYCARSGYGNYGLAWLAYWGQGTLVTVSA VL: QAVVIQESALTTSPGETVTLTCRSSTGAVTTSNYANWVQEKPDHLFTGLIGGSQNRAPGVPARFSGSLIGDKAALTITGAQTEDEAIYFCALVYSNHWVFGGGTKLTVLG | 2.77 nM | 0.000176 s⁻¹ | 63600 M⁻¹ s⁻¹ |
| Mutation 1-1 (antibody, V domains shown, built as m3) VH: EVQLQQSGPELVKPGASVKMSCKASGYTFTIYVLHWVKQKPGQGLEWIGYIQPYIDGTKYNEKFKGKATLTVDKSSSTAFMELSSLTSEDSAVYYCARSGYGNYGLAWLAYWGQGTLVTVSA VL: QAVVIQESALTTSPGETVTLTCRSSTGAATTSNYANWVQEKPDHLFTGLIGGSQNRAPGVPARFSGSLIGDKAALTITGAQTEDEAIYFCALVYSNQWVFGGGTKLTVLG | 8.27 nM | 0.000712 s⁻¹ | 86100 M⁻¹ s⁻¹ |
| Mutation 1-10 (antibody, V domains shown, Built as m8) VH: EVQLQQSGPELVKPGASVKMSCKASGYTFTLYVLHWVKQKPGQGLEWIGYIQPYLDGTKYNEKFKGKATLTVDKSSSTAFMELSSLTSEDSAVYYCARSGYGNYGLAWLAYWGQGTLVTVSA VL: QAVVIQESALTTSPGETVTLTCRSSTGAVTTSQYANWVQEKPDHLFTGLIGGSNNRAPGVPARFSGSLIGDKAALTITGAQTEDEAIYFCALVYSNQWVFGGGTKLTVLG | 0.731 nM | 4.12e-05 s⁻¹ | 56300 M⁻¹ s⁻¹ |
| Mutation 1-2 (antibody, V domains shown, Built as m8) VH: EVQLQQSGPELVKPGASVKMSCKASGYTFTIYVIHWVKQKPGQGLEWIGYIQPYIDGTKYNEKFKGKATLTVDKSSSTAFMELSSLTSEDSAVYYCARSGYGGYGLAWLAYWGQGTLVTVSA VL: QAVVIQESALTTSPGETVTLTCRSSTGAVTTSQYANWVQEKPDHLFTGLIGGSNNRAPGVPARFSGSLIGDKAALTITGAQTEDEAIYFCALVYSNNWVFGGGTKLTVLG | 7.64 nM | 0.00061 s⁻¹ | 79900 M⁻¹ s⁻¹ |
| Mutation 1-9 (antibody, V domains shown, Built as m8) VH: EVQLQQSGPELVKPGASVKMSCKASGYTFTLYVVHWVKQKPGQGLEWIGYIQPYLDGTKYNEKFKGKATLTVDKSSSTAFMELSSLTSEDSAVYYCARSGYGQYGLAWLAYWGQGTLVTVSA VL: QAVVIQESALTTSPGETVTLTCRSSTGAATTSNYANWVQEKPDHLFTGLIGGSQNRAPGVPARFSGSLIGDKAALTITGAQTEDEAIYFCALVYSNHWVFGGGTKLTVLG | 5.43 nM | 0.00024 s⁻¹ | 44200 M⁻¹ s⁻¹ |
| Mutation 1-13 (antibody, V domains shown, Built as m8) VH: EVQLQQSGPELVKPGASVKMSCKASGYTFTIYVLHWVKQKPGQGLEWIGYINPYIDGTKYNEKFKGKATLTVDKSSSTAFMELSSLTSEDSAVYYCARSGYGNYGLAWLAYWGQGTLVTVSA VL: QAVVIQESALTTSPGETVTLTCRSSTGAATTSNYANWVQEKPDHLFTGLIGGSQNRAPGVPARFSGSLIGDKAALTITGAQTEDEAIYFCALVYSNNWVFGGGTKLTVLG | 0.139 nM | 3.79e-06 s⁻¹ | 27300 M⁻¹ s⁻¹ |
| Mutation 1-6 (antibody, V domains shown, Built as m8) VH: EVQLQQSGPELVKPGASVKMSCKASGYTFTIYVVHWVKQKPGQGLEWIGYIQPYLDGTKYNEKFKGKATLTVDKSSSTAFMELSSLTSEDSAVYYCARSGYGQYGLAWLAYWGQGTLVTVSA VL: QAVVIQESALTTSPGETVTLTCRSSTGAVTTSQYANWVQEKPDHLFTGLIGGSNNRAPGVPARFSGSLIGDKAALTITGAQTEDEAIYFCALVYSNNWVFGGGTKLTVLG | 0.697 nM | 5.34e-05 s⁻¹ | 76600 M⁻¹ s⁻¹ |
| Mutation 1-5 (antibody, V domains shown, Built as m8) VH: EVQLQQSGPELVKPGASVKMSCKASGYTFTLYVIHWVKQKPGQGLEWIGYIQPYIDGTKYNEKFKGKATLTVDKSSSTAFMELSSLTSEDSAVYYCARSGYGGYGLAWLAYWGQGTLVTVSA VL: QAVVIQESALTTSPGETVTLTCRSSTGAATTSNYANWVQEKPDHLFTGLIGGSQNRAPGVPARFSGSLIGDKAALTITGAQTEDEAIYFCALVYSNHWVFGGGTKLTVLG | 1.2 nM | 4.4e-05 s⁻¹ | 36800 M⁻¹ s⁻¹ |
| Mutation 1-8 (antibody, V domains shown, Built as m8) VH: EVQLQQSGPELVKPGASVKMSCKASGYTFTIYVIHWVKQKPGQGLEWIGYIQPYLDGTKYNEKFKGKATLTVDKSSSTAFMELSSLTSEDSAVYYCARSGYGGYGLAWLAYWGQGTLVTVSA VL: QAVVIQESALTTSPGETVTLTCRSSTGAATTSQYANWVQEKPDHLFTGLIGGSNNRAPGVPARFSGSLIGDKAALTITGAQTEDEAIYFCALVYSNQWVFGGGTKLTVLG | 9.31 nM | 0.000244 s⁻¹ | 26200 M⁻¹ s⁻¹ |
| Mutation 1-4 (antibody, V domains shown, Built as m8) VH: EVQLQQSGPELVKPGASVKMSCKASGYTFTLYVLHWVKQKPGQGLEWIGYIQPYIDGTKYNEKFKGKATLTVDKSSSTAFMELSSLTSEDSAVYYCARSGYGNYGLAWLAYWGQGTLVTVSA VL: QAVVIQESALTTSPGETVTLTCRSSTGAATTSQYANWVQEKPDHLFTGLIGGSNNRAPGVPARFSGSLIGDKAALTITGAQTEDEAIYFCALVYSNNWVFGGGTKLTVLG | 5.03 nM | 0.000232 s⁻¹ | 46200 M⁻¹ s⁻¹ |
| Mutation 1-3 (antibody, V domains shown, Built as m8) VH: EVQLQQSGPELVKPGASVKMSCKASGYTFTLYVVHWVKQKPGQGLEWIGYIQPYIDGTKYNEKFKGKATLTVDKSSSTAFMELSSLTSEDSAVYYCARSGYGQYGLAWLAYWGQGTLVTVSA VL: QAVVIQESALTTSPGETVTLTCRSSTGAVTTSNYANWVQEKPDHLFTGLIGGSQNRAPGVPARFSGSLIGDKAALTITGAQTEDEAIYFCALVYSNQWVFGGGTKLTVLG | 0.399 nM | 9.54e-06 s⁻¹ | 23900 M⁻¹ s⁻¹ |

Next, values leading:

| Kd | koff | kon | Binder |
| --- | --- | --- | --- |
| 6.48 nM | 0.000222 s⁻¹ | 34300 M⁻¹ s⁻¹ | Mutation 1-16 (antibody, V domains shown, Built as m8) VH: EVQLQQSGPELVKPGASVKMSCKASGYTFTLYVLHWVKQKPGQGLEWIGYINPYLDGTKYNEKFKGKATLTVDKSSSTAFMELSSLTSEDSAVYYCARSGYGNYGLAWLAYWGQGTLVTVSA VL: QAVVIQESALTTSPGETVTLTCRSSTGAATTSQYANWVQEKPDHLFTGLIGGSNNRAPGVPARFSGSLIGDKAALTITGAQTEDEAIYFCALVYSNHWVFGGGTKLTVLG |
| 9.31 nM | 0.000586 s⁻¹ | 63000 M⁻¹ s⁻¹ | Mutation 1-18 (antibody, V domains shown, Built as m8) VH: EVQLQQSGPELVKPGASVKMSCKASGYTFTIYVVHWVKQKPGQGLEWIGYINPYLDGTKYNEKFKGKATLTVDKSSSTAFMELSSLTSEDSAVYYCARSGYGQYGLAWLAYWGQGTLVTVSA VL: QAVVIQESALTTSPGETVTLTCRSSTGAVTTSQYANWVQEKPDHLFTGLIGGSNNRAPGVPARFSGSLIGDKAALTITGAQTEDEAIYFCALVYSNHWVFGGGTKLTVLG |
| 0.866 nM | 2.21e-05 s⁻¹ | 25500 M⁻¹ s⁻¹ | Mutation 1-14 (antibody, V domains shown, Built as m8) VH: EVQLQQSGPELVKPGASVKMSCKASGYTFTIYVIHWVKQKPGQGLEWIGYINPYIDGTKYNEKFKGKATLTVDKSSSTAFMELSSLTSEDSAVYYCARSGYGGYGLAWLAYWGQGTLVTVSA VL: QAVVIQESALTTSPGETVTLTCRSSTGAVTTSQYANWVQEKPDHLFTGLIGGSNNRAPGVPARFSGSLIGDKAALTITGAQTEDEAIYFCALVYSNHWVFGGGTKLTVLG |
| 0.106 nM | 2.86e-06 s⁻¹ | 27000 M⁻¹ s⁻¹ | Mutation 1-22 (antibody, V domains shown, Built as m8) VH: EVQLQQSGPELVKPGASVKMSCKASGYTFTLYVLHWVKQKPGQGLEWIGYIYPYIDGTKYNEKFKGKATLTVDKSSSTAFMELSSLTSEDSAVYYCARSGYGNYGLAWLAYWGQGTLVTVSA VL: QAVVIQESALTTSPGETVTLTCRSSTGAVTTSQYANWVQEKPDHLFTGLIGGSNNRAPGVPARFSGSLIGDKAALTITGAQTEDEAIYFCALVYSNNWVFGGGTKLTVLG |
| 0.759 nM | 4.7e-05 s⁻¹ | 61900 M⁻¹ s⁻¹ | Mutation 1-15 (antibody, V domains shown, Built as m8) VH: EVQLQQSGPELVKPGASVKMSCKASGYTFTLYVVHWVKQKPGQGLEWIGYINPYIDGTKYNEKFKGKATLTVDKSSSTAFMELSSLTSEDSAVYYCARSGYGQYGLAWLAYWGQGTLVTVSA VL: QAVVIQESALTTSPGETVTLTCRSSTGAVTTSNYANWVQEKPDHLFTGLIGGSQNRAPGVPARFSGSLIGDKAALTITGAQTEDEAIYFCALVYSNNWVFGGGTKLTVLG |
| 7.74 nM | 0.000542 s⁻¹ | 70000 M⁻¹ s⁻¹ | Mutation 1-20 (antibody, V domains shown, Built as m8) VH: EVQLQQSGPELVKPGASVKMSCKASGYTFTIYVIHWVKQKPGQGLEWIGYIYPYIDGTKYNEKFKGKATLTVDKSSSTAFMELSSLTSEDSAVYYCARSGYGGYGLAWLAYWGQGTLVTVSA VL: QAVVIQESALTTSPGETVTLTCRSSTGAATTSQYANWVQEKPDHLFTGLIGGSNNRAPGVPARFSGSLIGDKAALTITGAQTEDEAIYFCALVYSNNWVFGGGTKLTVLG |
| 1.47 nM | 5.71e-05 s⁻¹ | 38800 M⁻¹ s⁻¹ | Mutation 1-21 (antibody, V domains shown, Built as m8) VH: EVQLQQSGPELVKPGASVKMSCKASGYTFTLYVVHWVKQKPGQGLEWIGYIYPYIDGTKYNEKFKGKATLTVDKSSSTAFMELSSLTSEDSAVYYCARSGYGQYGLAWLAYWGQGTLVTVSA VL: QAVVIQESALTTSPGETVTLTCRSSTGAATTSNYANWVQEKPDHLFTGLIGGSQNRAPGVPARFSGSLIGDKAALTITGAQTEDEAIYFCALVYSNQWVFGGGTKLTVLG |
